Results on eleven molecules are retold here after patent US20260167699A1 (Chugai, published 2026).

Sequences and labels used below:
B1: GpH7-A5/GpH7-B3 variant I336_06M/GpL16-k0 (antibody, human IgG1, kappa)
heavy 1: not shown
heavy 2: not shown
light: DIVMTQSPLSLPVTPGEPASISCQASESLVHSNRNTYLHWYLQKPGQSPQLLIYKVSNRFSGVPDRFSGSGSGTDFTLKISRVEAEDVGVYYCSQNTHVPPTFGQGTKVEIERTVAAPSVFIFPPSDEQLKSGTASVVCLLNNFYPREAKVQWKVDNALQSGNSQESVTEQDSKDSTYSLSSTLTLSKADYEKHKVYACEVTHQGLSSPVTKSFNRGEC
notes: printed 1336_06M, read as I336_06M; also called 1336_06M; copies: 1 + 1 + 2
B2: GpH7-A5/GpH7-B3 variant K326_09D/GpL16-k0 (antibody, human IgG1, kappa)
heavy 1: not shown
heavy 2: not shown
light: DIVMTQSPLSLPVTPGEPASISCQASESLVHSNRNTYLHWYLQKPGQSPQLLIYKVSNRFSGVPDRFSGSGSGTDFTLKISRVEAEDVGVYYCSQNTHVPPTFGQGTKVEIERTVAAPSVFIFPPSDEQLKSGTASVVCLLNNFYPREAKVQWKVDNALQSGNSQESVTEQDSKDSTYSLSSTLTLSKADYEKHKVYACEVTHQGLSSPVTKSFNRGEC
notes: copies: 1 + 1 + 2
B3: GpH7-A5/GpH7-B3 variant I336_15Y/GpL16-k0 (antibody, human IgG1, kappa)
heavy 1: not shown
heavy 2: not shown
light: DIVMTQSPLSLPVTPGEPASISCQASESLVHSNRNTYLHWYLQKPGQSPQLLIYKVSNRFSGVPDRFSGSGSGTDFTLKISRVEAEDVGVYYCSQNTHVPPTFGQGTKVEIERTVAAPSVFIFPPSDEQLKSGTASVVCLLNNFYPREAKVQWKVDNALQSGNSQESVTEQDSKDSTYSLSSTLTLSKADYEKHKVYACEVTHQGLSSPVTKSFNRGEC
notes: copies: 1 + 1 + 2
B4: GpH7-A5/GpH7-B3 variant K326_02A/GpL16-k0 (antibody, human IgG1, kappa)
heavy 1: not shown
heavy 2: not shown
light: DIVMTQSPLSLPVTPGEPASISCQASESLVHSNRNTYLHWYLQKPGQSPQLLIYKVSNRFSGVPDRFSGSGSGTDFTLKISRVEAEDVGVYYCSQNTHVPPTFGQGTKVEIERTVAAPSVFIFPPSDEQLKSGTASVVCLLNNFYPREAKVQWKVDNALQSGNSQESVTEQDSKDSTYSLSSTLTLSKADYEKHKVYACEVTHQGLSSPVTKSFNRGEC
notes: copies: 1 + 1 + 2
B5: GpH7-A5/GpH7-B3 variant K326_01G/GpL16-k0 (antibody, human IgG1, kappa)
heavy 1: not shown
heavy 2: not shown
light: DIVMTQSPLSLPVTPGEPASISCQASESLVHSNRNTYLHWYLQKPGQSPQLLIYKVSNRFSGVPDRFSGSGSGTDFTLKISRVEAEDVGVYYCSQNTHVPPTFGQGTKVEIERTVAAPSVFIFPPSDEQLKSGTASVVCLLNNFYPREAKVQWKVDNALQSGNSQESVTEQDSKDSTYSLSSTLTLSKADYEKHKVYACEVTHQGLSSPVTKSFNRGEC
notes: copies: 1 + 1 + 2
B6: GpH7-A5/GpH7-B3 variant K326_04F/GpL16-k0 (antibody, human IgG1, kappa)
heavy 1: not shown
heavy 2: not shown
light: DIVMTQSPLSLPVTPGEPASISCQASESLVHSNRNTYLHWYLQKPGQSPQLLIYKVSNRFSGVPDRFSGSGSGTDFTLKISRVEAEDVGVYYCSQNTHVPPTFGQGTKVEIERTVAAPSVFIFPPSDEQLKSGTASVVCLLNNFYPREAKVQWKVDNALQSGNSQESVTEQDSKDSTYSLSSTLTLSKADYEKHKVYACEVTHQGLSSPVTKSFNRGEC
notes: copies: 1 + 1 + 2
B7: GpH7-A5/GpH7-B3 variant I336_14T/GpL16-k0 (antibody, human IgG1, kappa)
heavy 1: not shown
heavy 2: not shown
light: DIVMTQSPLSLPVTPGEPASISCQASESLVHSNRNTYLHWYLQKPGQSPQLLIYKVSNRFSGVPDRFSGSGSGTDFTLKISRVEAEDVGVYYCSQNTHVPPTFGQGTKVEIERTVAAPSVFIFPPSDEQLKSGTASVVCLLNNFYPREAKVQWKVDNALQSGNSQESVTEQDSKDSTYSLSSTLTLSKADYEKHKVYACEVTHQGLSSPVTKSFNRGEC
notes: copies: 1 + 1 + 2
B8: GpH7-A5/GpH7-B3 variant K326_08L/GpL16-k0 (antibody, human IgG1, kappa)
heavy 1: not shown
heavy 2: not shown
light: DIVMTQSPLSLPVTPGEPASISCQASESLVHSNRNTYLHWYLQKPGQSPQLLIYKVSNRFSGVPDRFSGSGSGTDFTLKISRVEAEDVGVYYCSQNTHVPPTFGQGTKVEIERTVAAPSVFIFPPSDEQLKSGTASVVCLLNNFYPREAKVQWKVDNALQSGNSQESVTEQDSKDSTYSLSSTLTLSKADYEKHKVYACEVTHQGLSSPVTKSFNRGEC
notes: copies: 1 + 1 + 2
B9: GpH7-A5/GpH7-B3 variant I336_10E/GpL16-k0 (antibody, human IgG1, kappa)
heavy 1: not shown
heavy 2: not shown
light: DIVMTQSPLSLPVTPGEPASISCQASESLVHSNRNTYLHWYLQKPGQSPQLLIYKVSNRFSGVPDRFSGSGSGTDFTLKISRVEAEDVGVYYCSQNTHVPPTFGQGTKVEIERTVAAPSVFIFPPSDEQLKSGTASVVCLLNNFYPREAKVQWKVDNALQSGNSQESVTEQDSKDSTYSLSSTLTLSKADYEKHKVYACEVTHQGLSSPVTKSFNRGEC
notes: copies: 1 + 1 + 2
B10: GpH7-A5/GpH7-B3 variant I336_09D/GpL16-k0 (antibody, human IgG1, kappa)
heavy 1: not shown
heavy 2: not shown
light: DIVMTQSPLSLPVTPGEPASISCQASESLVHSNRNTYLHWYLQKPGQSPQLLIYKVSNRFSGVPDRFSGSGSGTDFTLKISRVEAEDVGVYYCSQNTHVPPTFGQGTKVEIERTVAAPSVFIFPPSDEQLKSGTASVVCLLNNFYPREAKVQWKVDNALQSGNSQESVTEQDSKDSTYSLSSTLTLSKADYEKHKVYACEVTHQGLSSPVTKSFNRGEC
notes: copies: 1 + 1 + 2
B11: GpH7-A5/GpH7-B3 variant K326_07I/GpL16-k0 (antibody, human IgG1, kappa)
heavy 1: not shown
heavy 2: not shown
light: DIVMTQSPLSLPVTPGEPASISCQASESLVHSNRNTYLHWYLQKPGQSPQLLIYKVSNRFSGVPDRFSGSGSGTDFTLKISRVEAEDVGVYYCSQNTHVPPTFGQGTKVEIERTVAAPSVFIFPPSDEQLKSGTASVVCLLNNFYPREAKVQWKVDNALQSGNSQESVTEQDSKDSTYSLSSTLTLSKADYEKHKVYACEVTHQGLSSPVTKSFNRGEC
notes: copies: 1 + 1 + 2
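Note: antibody variants captured on an SPR sensor chip, with FcγRIIIa passed over as analyte in HBS-EP+ buffer at 25 °C.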

T1 sequence (P08637 other isoform, or with tags, fused parts or gaps): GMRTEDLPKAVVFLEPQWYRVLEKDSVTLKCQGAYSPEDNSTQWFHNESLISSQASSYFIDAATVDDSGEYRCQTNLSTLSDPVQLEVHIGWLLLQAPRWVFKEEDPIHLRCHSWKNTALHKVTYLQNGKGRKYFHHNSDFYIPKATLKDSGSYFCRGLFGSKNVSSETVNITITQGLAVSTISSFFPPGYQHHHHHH

This experiment concerns the target T1, FcγRIIIa (human, UniProt P08637 17-208).
T1 construct: extracellular domain; also called 3a; FcγRIIIa extracellular domain
In words: SPR (Biacore). (SPR reads the build-up and loss of mass on a sensor chip optically.)
On to B1, for which the “He/Con 3a” value is 104 % of GpH7-A5/GpH7-B3/GpL16-k0.

As to B2, the “He/Con 3a” value was 148 % of GpH7-A5/GpH7-B3/GpL16-k0.

Turning to B3, the “He/Con 3a” value was 83.4 % of GpH7-A5/GpH7-B3/GpL16-k0.

Consider B4, for which the “He/Con 3a” value is 130 % of GpH7-A5/GpH7-B3/GpL16-k0.

With B5, the “He/Con 3a” value was 114 % of GpH7-A5/GpH7-B3/GpL16-k0.

In the case of B6, the “He/Con 3a” value is 114 % of GpH7-A5/GpH7-B3/GpL16-k0.

On to B7, for which the “He/Con 3a” value was 103 % of GpH7-A5/GpH7-B3/GpL16-k0.

B8: the “He/Con 3a” value is 126 % of GpH7-A5/GpH7-B3/GpL16-k0.

Turning to B9, the “He/Con 3a” value is 114 % of GpH7-A5/GpH7-B3/GpL16-k0.

For B10, the “He/Con 3a” value is 102 % of GpH7-A5/GpH7-B3/GpL16-k0.

For B11, the “He/Con 3a” value is 153 % of GpH7-A5/GpH7-B3/GpL16-k0.
